# From patent US20110129935A1, “PROTEIN STABILITY ASSAY USING A FLUORESCENT REPORTER OF PROTEIN FOLDING” (James Cook University, priority 2008, published 2011)
# Assay: Thermal aggregation profiles and Tagg by SDS-PAGE
# Assay type: physicochemical
# Conditions: heat treated separately 30 minutes, 42 to 64° C.
# Method: After incubation, reactions were stopped by transferring the samples to ice for 10 minutes prior to centrifugation at 18,000 r.p.m. for 20 minutes at 4° C. in a Beckman Coulter (Fullerton, Calif., USA) centrifuge (rotor: F12×8.2). The supernatants (3 or 5 μl) were then analyzed by 10% NEXT-GEL SDS-PAGE (Amresco, Solon, Ohio, USA). The gels were illuminated on a transilluminator at 365 nm followed by Coomassie blue staining. Coomassie-stained protein bands corresponding to Ffold were integrated using ImageJ (see the website at rsbweb.nih.gov/ij/) and plotted against the temperature.
# To determine the Tagg at which 50% of proteins were aggregated, the thermal aggregation profile data were fit to the following sigmoid function:
# Ffold=1−(1/(1+e^(Tagg-T/c))
# where Ffold is the normalized fluorescence intensity at temperature T, and c is the Hill slope factor.
# Ffold was then determined by SDS-PAGE. For this experiment, equal amounts of the three proteins were mixed to avoid variations in buffer composition and protein concentrations.
# Due to the oligomeric quaternary structure of these proteins, experiments were performed separately to avoid the formation of heterogeneous protein complexes.
molecule,measurement,value
"GK: tetrameric glycerol kinase from E. coli (protein, UniProt P0A6F3 2-502, looked up) Glycerol kinase: TEKKYIVALDQGTTSSRAVVMDHDANIISVSQREFEQIYPKPGWVEHDPMEIWATQSSTLVEVLAKADISSDQIAAIGITNQRETTIVWEKETGKPIYNAIVWQCRRTAEICEHLKRDGLEDYIRSNTGLVIDPYFSGTKVKWILDHVEGSRERARRGELLFGTVDTWLIWKMTQGRVHVTDYTNASRTMLFNIHTLDWDDKMLEVLDIPREMLPEVRRSSEVYGQTNIGGKGGTRIPISGIAGDQQAALFGQLCVKEGMAKNTYGTGCFMLMNTGEKAVKSENGLLTTIACGPTGEVNYALEGAVFMAGASIQWLRDEMKLINDAYDSEYFATKVQNTNGVYVVPAFTGLGAPYWDPYARGAIFGLTRGVNANHIIRATLESIAYQTRDVLEAMQADSGIRLHALRVDGGAVANNFLMQFQSDILGTRVERPEVREVTALGAAYLAGLAVGFWQNLDELQEKAVIEREFRPGIETTERNYRYAGWKKAVKRAMAWEEHDE",Tagg,50.4±0.3 °C
